{
  "source": "paper doi:10.1101/2022.06.02.494630",
  "about": "(bioRxiv, 2022)",
  "binders": {"B1": {"name": "GST-tagged recombinant PfPHB1 (natural protein, Plasmodium falciparum (3D7), UniProt Q8IBC3 1-272, looked up)", "chain": "MERILSSIGKLSVVAGGLSLIPYTFIYDVDGGERCVMFNRFGGVSENTFGEGSHFYVPWFQTPYIYDIKMKPKVINTTTGTRDLQIVTISLRLLFRPHTQHLPYLHSTLGPDYDERVLPSIGNEVLKAVVAKYNAESLLTQRDKISKEIRESITARAKHFNILLDDVAITHLSYGKEFAKAIEDKQVAQQESERVKFIVAKTEQEKIAAVIKAQGEAEAAKLISSAVKEYGKSLIEIRKLEAAKEIAENLSKSKNVTYFPSNSNILLNPRDF", "modifications": "Lysine reactive dye (Monolith Protein Labelling Kit Red-NHS 2nd Generation), in the MST only"}},
  "target": "T1, GST-tagged recombinant PfPHB2 (Plasmodium falciparum (3D7), UniProt Q8IJP8 1-304)",
  "T1 sequence (looked up)": "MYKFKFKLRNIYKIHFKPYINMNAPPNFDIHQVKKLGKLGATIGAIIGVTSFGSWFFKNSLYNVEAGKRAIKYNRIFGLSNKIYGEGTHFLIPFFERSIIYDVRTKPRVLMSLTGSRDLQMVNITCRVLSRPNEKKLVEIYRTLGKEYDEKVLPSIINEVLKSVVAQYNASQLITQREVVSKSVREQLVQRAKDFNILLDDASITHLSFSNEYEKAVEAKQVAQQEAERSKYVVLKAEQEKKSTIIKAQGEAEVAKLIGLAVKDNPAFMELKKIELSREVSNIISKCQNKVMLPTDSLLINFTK",
  "test": "MST",
  "data": [
    {"binder": "B1", "values": [
      {"measurement": "Kd", "result": "136 ± 10.5", "unit": "nM"}
    ]}
  ]
}
